Data as given in article PMC3307728.

Tests used:
[1] = target: T1, DEAF1-FLAG (human, UniProt O75398 1-565); test: EMSA; no shift; EMSA: 100 mM KCl, 50 mM Tris pH 7.5, 1 mM DTT, 25 °C, 30 min protein preincubation then 30 min with 32P probe; 4% native gel; conditions: protein: recombinant; tags: FLAG (C-terminal, from the name DEAF1-FLAG; also written FLAG-DEAF1); chain copies: 2; label: 32P in EMSA
T1 sequence: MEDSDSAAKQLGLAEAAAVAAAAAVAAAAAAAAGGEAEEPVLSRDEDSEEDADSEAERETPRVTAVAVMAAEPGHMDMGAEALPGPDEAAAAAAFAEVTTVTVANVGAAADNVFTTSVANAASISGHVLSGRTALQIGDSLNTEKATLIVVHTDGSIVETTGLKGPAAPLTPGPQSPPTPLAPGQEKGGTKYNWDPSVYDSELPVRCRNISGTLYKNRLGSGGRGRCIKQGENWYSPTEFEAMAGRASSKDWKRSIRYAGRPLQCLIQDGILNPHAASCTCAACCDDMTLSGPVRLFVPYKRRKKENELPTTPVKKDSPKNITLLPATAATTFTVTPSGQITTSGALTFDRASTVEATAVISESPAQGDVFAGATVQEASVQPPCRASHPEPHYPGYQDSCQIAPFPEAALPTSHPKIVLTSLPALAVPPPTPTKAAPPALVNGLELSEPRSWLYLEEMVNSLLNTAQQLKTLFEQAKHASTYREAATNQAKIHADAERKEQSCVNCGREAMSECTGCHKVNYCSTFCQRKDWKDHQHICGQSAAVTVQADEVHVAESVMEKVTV

[2] = target: Ku70;FLAG-Ku80 (human?;human?, UniProt P12956;P13010 1-609;1-732, |); test: EMSA; DNA end binding; EMSA: 100 mM KCl, 50 mM Tris pH 7.5, 1 mM DTT, 25 °C, 30 min protein preincubation then 30 min with 32P probe; 4% native gel; conditions: protein: recombinant;recombinant; tags: none;FLAG (N-terminal, from the name); copies: 1;1; label: 32P in EMSA
Chain of Ku70;FLAG-Ku80 (P12956 whole entry, chain 1 of 2): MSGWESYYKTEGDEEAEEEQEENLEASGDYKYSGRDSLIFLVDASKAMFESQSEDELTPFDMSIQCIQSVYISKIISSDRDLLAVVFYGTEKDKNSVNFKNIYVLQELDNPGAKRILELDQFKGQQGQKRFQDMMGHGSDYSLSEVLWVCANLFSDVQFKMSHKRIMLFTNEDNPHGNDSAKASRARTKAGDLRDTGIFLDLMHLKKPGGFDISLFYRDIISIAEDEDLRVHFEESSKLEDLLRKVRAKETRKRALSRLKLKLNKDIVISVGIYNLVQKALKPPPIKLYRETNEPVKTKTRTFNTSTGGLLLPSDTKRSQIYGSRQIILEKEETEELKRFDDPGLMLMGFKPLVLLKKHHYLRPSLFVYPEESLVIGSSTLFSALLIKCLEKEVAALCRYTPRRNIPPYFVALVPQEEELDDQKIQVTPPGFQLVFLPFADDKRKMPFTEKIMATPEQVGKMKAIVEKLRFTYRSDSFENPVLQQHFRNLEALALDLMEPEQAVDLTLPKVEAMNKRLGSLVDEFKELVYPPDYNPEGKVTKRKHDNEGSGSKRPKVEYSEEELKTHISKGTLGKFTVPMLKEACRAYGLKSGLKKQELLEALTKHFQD
Chain of Ku70;FLAG-Ku80 (P13010 whole entry, chain 2 of 2): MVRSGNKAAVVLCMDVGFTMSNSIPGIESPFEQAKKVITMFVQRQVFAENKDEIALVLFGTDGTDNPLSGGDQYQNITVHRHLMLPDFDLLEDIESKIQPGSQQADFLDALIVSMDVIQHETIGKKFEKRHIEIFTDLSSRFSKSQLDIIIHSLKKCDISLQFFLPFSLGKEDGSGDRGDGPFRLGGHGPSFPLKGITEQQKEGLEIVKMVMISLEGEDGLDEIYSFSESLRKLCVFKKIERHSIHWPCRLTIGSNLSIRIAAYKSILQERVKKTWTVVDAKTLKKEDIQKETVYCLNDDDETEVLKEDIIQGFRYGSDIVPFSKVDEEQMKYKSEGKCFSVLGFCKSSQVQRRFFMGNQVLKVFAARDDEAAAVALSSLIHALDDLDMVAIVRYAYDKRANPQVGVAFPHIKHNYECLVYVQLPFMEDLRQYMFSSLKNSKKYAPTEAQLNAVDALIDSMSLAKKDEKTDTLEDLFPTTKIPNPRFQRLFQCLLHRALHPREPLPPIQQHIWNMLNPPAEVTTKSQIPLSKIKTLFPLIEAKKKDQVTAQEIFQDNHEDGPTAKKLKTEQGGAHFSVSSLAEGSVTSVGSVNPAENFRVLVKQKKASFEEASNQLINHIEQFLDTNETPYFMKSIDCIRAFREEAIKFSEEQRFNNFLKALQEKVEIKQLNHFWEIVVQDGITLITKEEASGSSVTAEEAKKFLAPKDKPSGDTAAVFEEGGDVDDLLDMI

[3] = target: T1, DEAF1-FLAG; test: EMSA; doublet of shifted bands; EMSA: 100 mM KCl, 50 mM Tris pH 7.5, 1 mM DTT, 25 °C, 30 min protein preincubation then 30 min with 32P probe; 4% native gel; conditions: protein: recombinant; tags: FLAG (C-terminal, from the name DEAF1-FLAG; also written FLAG-DEAF1); chain copies: 2; label: 32P in EMSA

B1: Mut 2 (dsDNA)
DNA 1: TTTTGCTTCCCACTTTTG
DNA 2: CAAAAGTGGGAAGCAAAA
- binding result [1]: no binding
- binding result [2]: binds

B2: N52-69 (dsDNA)
DNA 1: TTCGGCTTCCCACTTCGG
DNA 2: CCGAAGTGGGAAGCCGAA
- binding result [2]: binds
- binding result [3]: binds
